Legend:
[1] = biological target: TFPI (form not stated, Example 5) (UniProt P10646 29-304, limits assumed); assay: method not stated
[2] = biological target: T1, endogenous TFPI of human plasma (human, UniProt P10646 29-304, limits assumed); assay: cell-based or functional assay
[3] = biological target: T2, human TFPI alpha (full-length TFPIα) (human, UniProt P10646 29-304); assay: cell-based or functional assay
[4] = biological target: TFPI KPI-2 fragment spanning the KPI-2 domain of TFPI with a C-terminal HIS6 tag (human, UniProt P10646 119-178); assay: SPR (Biacore T200), bispecific captured by anti-Fab kappa antibody, antigen as analyte, 1:1 Langmuir fit
Protocol: (§1) Binding studies were performed on a Biacore T200 (GEHealthcare) that measures molecular interactions in real time through surface plasmon resonance. Experiments were run at 25° C. and the samples were stored at 15° C. in the sample compartment. The signal (RU, response units) reported by the Biacore is directly correlated to the mass on the individual sensor chip surfaces in four serial flow cells. Goat anti Fab Kappa Light Chain antibody (Nordic Biosite) was immobilized onto all four flow cells of a CM4 sensor chip according to the manufacturer's instructions. Capture of purified bispecific molecules was conducted by diluting the proteins into running buffer (10 mM Hepes 0.3 M NaCl, 5 mM CaCl₂, 0.05% surfactant P20, 10 mg/ml BSA, pH 7.4) and injected over flowcell 2, 3 or 4, creating a reference surface in flow cell 1 with only anti-Fab antibody immobilized. […] Binding of TFPI FL (SEQ ID NO: 1), TFPI (1-79), and TFPI KPI-2 proteins was conducted by injecting analyte (antigen) over all flow cells to allow for comparative analyses of binding to different captured bispecific molecules relative to binding to the reference surface. The TFPI (1-79) fragment spans the N-terminal and KPI-1 domain of TFPI with an N-terminally attached GSSGSSG tag (SEQ ID NO: 16). The TFPI KPI-2 fragment spans the KPI-2 domain of TFPI with a C-terminal HIS₆ tag (SEQ ID NO: 3). Antigens were diluted serially into running buffer, injected at 30 μl/min for 240 s and allowed to dissociate for 600 s or 14000 s. Prolonging the monitoring of dissociation phase for antigens that dissociates slowly with kd approaching 1E-5 s⁻¹ is crucial to get a robust value for the dissociation rate. The CM4 surface was regenerated after each injection cycle of analyte via injection of 10 mM Glycine, pH 2.1. This regeneration step removed the anti-TFPI bispecific molecule and any bound antigen from the immobilized capture antibody surface, and allowed for the subsequent binding of the next interaction sample pair.

[5] = biological target: T3, TFPI (1-79) fragment, N-terminal and KPI-1 domain of TFPI with an N-terminally attached GSSGSSG tag (human, UniProt P10646 29-107); assay: as above
T3 construct: also called tagged TFPI KPI-1/N-terminal; TFPI KPI-1
Protocol: as §1

[6] = biological target: T1, endogenous TFPI of human plasma; assay: cell-based or functional assay; remark: listed apart in the source
[7] = biological target: T2, human TFPI alpha (full-length TFPIα); assay: cell-based or functional assay; remark: listed apart in the source

Binder	fold lower TFPI binding affinity than mAb 2021 [1]	EC50 (half-maximal response); thrombin generation, FVIII-neutralised plasma, no TFPI added; four-parameter fit, average of 2 experiments [2]	EC50 of the thrombin generation response in FVIII-neutralised plasma without added TFPI [2]	EC50; thrombin generation, FVIII-neutralised plasma + 10 nM full-length TFPI alpha; single experiment [3]	EC50 of the thrombin generation response in FVIII-neutralised plasma + 10 nM full-length TFPI alpha [3]	Kd [4]	koff [4]	kon [4]	Kd [5]	koff [5]	kon [5]	Peak (nM); thrombin generation, FVIII-neutralized plasma, no TFPI added; 10.0 nM mAb [6]	ttPeak (min); thrombin generation, FVIII-neutralized plasma, no TFPI added; 10.0 nM mAb [6]	Peak (nM); thrombin generation, FVIII-neutralized plasma + 10 nM TFPI alpha; 100.0 nM mAb [7]	ttPeak (min); thrombin generation, FVIII-neutralized plasma + 10 nM TFPI alpha; 100.0 nM mAb [7]
mAb 2007 (antibody, V domains shown, Grafted HzTFPI4F36 with a single A60P (Kabat) back mutation in VH) VH: EVQLVESGGGLVKPGGSLRLSCAASGFTFSNYAMSWVRQAPGKGLEWVSTISRSGSYSYYPDSVKGRFTISRDNAKNSLYLQMNSLRAEDTAVYYCARLGGYDEGDAMDSWGQGTTVTVSS VL: DIVMTQTPLSLSVTPGQPASISCKSSQSLLESDGKTYLNWYLQKPGQSPQLLIYLVSILDSGVPDRFSGSGSGTDFTLKISRVEAEDVGVYYCLQATHFPQTFGGGTKVEIKR	10 fold	–	–	–	–	–	–	–	–	–	–	–	–	–	–
BiFab 9041 (bispecific antibody, C-terminal cysteine linked through the bis-maleimide linker to the C-terminal cysteine of the other Fab's heavy chain; C-terminal cysteine linked through 1,16-bis(2,5-pyrroledione-1-yl)-4,13-diaza-7,10-dioxa-3,14-dioxohexadecane to the C-terminal cysteine of the other Fab's heavy chain, also called Fab 0088 conjugated to Fab 0295) heavy 1: EVQLVESGGGLVKPGGSLRLSCAASGFTFSNYAMSWVRQTPEKRLEWVATISRSGSYSYFPDSVQGRFTISRDNAKNSLYLQMNSLRAEDTAVYYCARLGGYDEGDAMDSWGQGTTVTVSSASTKGPSVFPLAPCSRSTSESTAALGCLVKDYFPEPVTVSWNSGALTSGVHTFPAVLQSSGLYSLSSVVTVPSSSLGTKTYTCNVDHKPSNTKVDKRVESKYGPPC light 1: DIVMTQTPLSLSVTPGQPASISCKSSQSLLESDGKTYLNWYLQKPGQSPQLLIYLVSILDSGVPDRFSGSGSGTDFTLKISRVEAEDVGVYYCLQATHFPQTFGGGTKVEIKRTVAAPSVFIFPPSDEQLKSGTASVVCLLNNFYPREAKVQWKVDNALQSGNSQESVTEQDSKDSTYSLSSTLTLSKADYEKHKVYACEVTHQGLSSPVTKSFNRGEC heavy 2: QVQLKQSGPGLVQPSQSLSITCTVSGFSLTNYGVHWVRQSPGKGLEWLAVIWRGGSIDYNAAFMSRLSITKDNSKSQVFFKMNSLQADDTAIYYCAKNSHGNYVGYAMDYWGQGTSVTVSSASTKGPSVFPLAPCSRSTSESTAALGCLVKDYFPEPVTVSWNSGALTSGVHTFPAVLQSSGLYSLSSVVTVPSSSLGTKTYTCNVDHKPSNTKVDKRVESKYGPPC light 2: GIVMTQSQKFMSTTVGDRVSITCKASQSVGPAVAWYQQKPGQSPKLLIYSASNRYTGVPDRFTGSGSGADFTLTISNLHSEDLADYFCQQYTSYPTFGGGTKLEIKRTVAAPSVFIFPPSDEQLKSGTASVVCLLNNFYPREAKVQWKVDNALQSGNSQESVTEQDSKDSTYSLSSTLTLSKADYEKHKVYACEVTHQGLSSPVTKSFNRGEC	–	–	–	–	–	0.01 nM	6e-05 s⁻¹	4e+06 M⁻¹ s⁻¹	0.9 nM	0.0003 s⁻¹	300000 M⁻¹ s⁻¹	–	–	–	–

Next, values leading:

fold lower TFPI binding affinity than mAb 2021 [1]	EC50 (half-maximal response); thrombin generation, FVIII-neutralised plasma, no TFPI added; four-parameter fit, average of 2 experiments [2]	EC50 of the thrombin generation response in FVIII-neutralised plasma without added TFPI [2]	EC50; thrombin generation, FVIII-neutralised plasma + 10 nM full-length TFPI alpha; single experiment [3]	EC50 of the thrombin generation response in FVIII-neutralised plasma + 10 nM full-length TFPI alpha [3]	Kd [4]	koff [4]	kon [4]	Kd [5]	koff [5]	kon [5]	Peak (nM); thrombin generation, FVIII-neutralized plasma, no TFPI added; 10.0 nM mAb [6]	ttPeak (min); thrombin generation, FVIII-neutralized plasma, no TFPI added; 10.0 nM mAb [6]	Peak (nM); thrombin generation, FVIII-neutralized plasma + 10 nM TFPI alpha; 100.0 nM mAb [7]	ttPeak (min); thrombin generation, FVIII-neutralized plasma + 10 nM TFPI alpha; 100.0 nM mAb [7]	Binder
~1000 fold	–	–	–	–	–	–	–	–	–	–	–	–	–	–	mAb 2000 (antibody, IgG4, V domains shown, Human kappa/IgG4 (S241P); also called initial grafted HzTFPI4F36 variant) VH: EVQLVESGGGLVKPGGSLRLSCAASGFTFSNYAMSWVRQAPGKGLEWVSTISRSGSYSYYADSVKGRFTISRDNAKNSLYLQMNSLRAEDTAVYYCARLGGYDEGDAMDSWGQGTTVTVSS VL: DIVMTQTPLSLSVTPGQPASISCKSSQSLLESDGKTYLNWYLQKPGQSPQLLIYLVSILDSGVPDRFSGSGSGTDFTLKISRVEAEDVGVYYCLQATHFPQTFGGGTKVEIKR
–	1.1 nM	1.1 nM	9.5 nM	9.5 nM	0.02 nM	8e-05 s⁻¹	5e+06 M⁻¹ s⁻¹	0.3 nM	0.0001 s⁻¹	400000 M⁻¹ s⁻¹	182 nM	6.9 min	177 nM	7 min	mAb 0421 (bispecific antibody, human IgG1, kappa, Full length human IgG1 format, made by controlled Fab-arm exchange; also called asymmetric bispecific antibody derived from mAb 0310 and mAb 0336) heavy 1: not shown light 1: DIVMTQTPLSLSVTPGQPASISCKSSQSLLESDGKTYLNWYLQKPGQSPQLLIYLVSILDSGVPDRFSGSGSGTDFTLKISRVEAEDVGVYYCLQATHFPQTFGGGTKVEIKRTVAAPSVFIFPPSDEQLKSGTASVVCLLNNFYPREAKVQWKVDNALQSGNSQESVTEQDSKDSTYSLSSTLTLSKADYEKHKVYACEVTHQGLSSPVTKSFNRGEC heavy 2: not shown light 2: GIVMTQSQKFMSTTVGDRVSITCKASQSVGPAVAWYQQKPGQSPKLLIYSASNRYTGVPDRFTGSGSGADFTLTISNLHSEDLADYFCQQYTSYPTFGGGTKLEIKRTVAAPSVFIFPPSDEQLKSGTASVVCLLNNFYPREAKVQWKVDNALQSGNSQESVTEQDSKDSTYSLSSTLTLSKADYEKHKVYACEVTHQGLSSPVTKSFNRGEC
